Paper PMC5655137

Target: E. coli small ribosomal 30S subunit (E. coli (MRE600)) (UniProt P0AG67)

Chain of E. coli RNA polymerase core complex (P0A7Z4 whole entry): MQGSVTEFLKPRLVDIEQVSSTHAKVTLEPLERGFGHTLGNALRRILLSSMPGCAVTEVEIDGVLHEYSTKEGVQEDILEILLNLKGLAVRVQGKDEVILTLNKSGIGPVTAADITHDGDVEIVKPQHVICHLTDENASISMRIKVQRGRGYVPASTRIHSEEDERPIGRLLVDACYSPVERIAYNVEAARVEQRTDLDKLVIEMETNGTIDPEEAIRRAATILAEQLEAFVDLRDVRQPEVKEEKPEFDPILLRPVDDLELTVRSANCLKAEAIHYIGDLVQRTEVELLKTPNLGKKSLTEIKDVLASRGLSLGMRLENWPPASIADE
Chain of E. coli RNA polymerase core complex (P0A8V2 2-1341): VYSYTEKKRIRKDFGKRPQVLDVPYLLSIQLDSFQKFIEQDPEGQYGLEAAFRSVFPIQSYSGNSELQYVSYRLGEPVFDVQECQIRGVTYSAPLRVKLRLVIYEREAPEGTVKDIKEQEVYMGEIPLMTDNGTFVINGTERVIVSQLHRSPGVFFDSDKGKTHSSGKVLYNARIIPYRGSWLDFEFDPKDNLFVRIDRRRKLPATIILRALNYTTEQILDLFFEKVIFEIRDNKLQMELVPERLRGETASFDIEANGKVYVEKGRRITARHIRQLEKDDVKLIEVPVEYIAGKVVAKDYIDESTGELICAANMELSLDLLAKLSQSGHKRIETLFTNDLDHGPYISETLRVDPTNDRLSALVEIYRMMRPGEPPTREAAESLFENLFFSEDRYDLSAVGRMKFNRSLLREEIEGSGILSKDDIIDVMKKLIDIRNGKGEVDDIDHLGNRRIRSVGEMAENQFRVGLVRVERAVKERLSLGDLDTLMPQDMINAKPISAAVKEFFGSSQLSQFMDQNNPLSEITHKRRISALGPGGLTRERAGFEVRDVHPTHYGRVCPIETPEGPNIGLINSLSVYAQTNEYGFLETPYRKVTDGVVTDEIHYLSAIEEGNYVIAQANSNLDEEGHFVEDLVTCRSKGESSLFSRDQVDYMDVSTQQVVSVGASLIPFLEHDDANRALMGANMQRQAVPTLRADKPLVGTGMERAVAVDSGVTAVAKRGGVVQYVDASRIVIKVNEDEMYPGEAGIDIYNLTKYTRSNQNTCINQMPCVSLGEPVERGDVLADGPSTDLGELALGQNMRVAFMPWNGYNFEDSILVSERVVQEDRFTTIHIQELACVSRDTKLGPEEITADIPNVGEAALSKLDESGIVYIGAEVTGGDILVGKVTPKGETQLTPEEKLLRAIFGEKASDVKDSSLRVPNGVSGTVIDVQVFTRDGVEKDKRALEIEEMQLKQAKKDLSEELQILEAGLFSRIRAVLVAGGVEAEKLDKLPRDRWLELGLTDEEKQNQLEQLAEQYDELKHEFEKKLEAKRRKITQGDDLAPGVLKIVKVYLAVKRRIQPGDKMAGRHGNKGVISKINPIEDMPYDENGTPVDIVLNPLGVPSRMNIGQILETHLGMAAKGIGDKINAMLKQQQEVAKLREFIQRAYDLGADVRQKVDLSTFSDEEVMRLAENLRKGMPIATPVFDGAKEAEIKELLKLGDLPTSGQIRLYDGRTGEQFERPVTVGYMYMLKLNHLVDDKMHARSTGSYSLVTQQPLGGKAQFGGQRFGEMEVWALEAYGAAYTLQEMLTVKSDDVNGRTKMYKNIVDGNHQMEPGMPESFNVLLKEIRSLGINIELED
Chain of E. coli RNA polymerase core complex (P0A8T7 8-1376): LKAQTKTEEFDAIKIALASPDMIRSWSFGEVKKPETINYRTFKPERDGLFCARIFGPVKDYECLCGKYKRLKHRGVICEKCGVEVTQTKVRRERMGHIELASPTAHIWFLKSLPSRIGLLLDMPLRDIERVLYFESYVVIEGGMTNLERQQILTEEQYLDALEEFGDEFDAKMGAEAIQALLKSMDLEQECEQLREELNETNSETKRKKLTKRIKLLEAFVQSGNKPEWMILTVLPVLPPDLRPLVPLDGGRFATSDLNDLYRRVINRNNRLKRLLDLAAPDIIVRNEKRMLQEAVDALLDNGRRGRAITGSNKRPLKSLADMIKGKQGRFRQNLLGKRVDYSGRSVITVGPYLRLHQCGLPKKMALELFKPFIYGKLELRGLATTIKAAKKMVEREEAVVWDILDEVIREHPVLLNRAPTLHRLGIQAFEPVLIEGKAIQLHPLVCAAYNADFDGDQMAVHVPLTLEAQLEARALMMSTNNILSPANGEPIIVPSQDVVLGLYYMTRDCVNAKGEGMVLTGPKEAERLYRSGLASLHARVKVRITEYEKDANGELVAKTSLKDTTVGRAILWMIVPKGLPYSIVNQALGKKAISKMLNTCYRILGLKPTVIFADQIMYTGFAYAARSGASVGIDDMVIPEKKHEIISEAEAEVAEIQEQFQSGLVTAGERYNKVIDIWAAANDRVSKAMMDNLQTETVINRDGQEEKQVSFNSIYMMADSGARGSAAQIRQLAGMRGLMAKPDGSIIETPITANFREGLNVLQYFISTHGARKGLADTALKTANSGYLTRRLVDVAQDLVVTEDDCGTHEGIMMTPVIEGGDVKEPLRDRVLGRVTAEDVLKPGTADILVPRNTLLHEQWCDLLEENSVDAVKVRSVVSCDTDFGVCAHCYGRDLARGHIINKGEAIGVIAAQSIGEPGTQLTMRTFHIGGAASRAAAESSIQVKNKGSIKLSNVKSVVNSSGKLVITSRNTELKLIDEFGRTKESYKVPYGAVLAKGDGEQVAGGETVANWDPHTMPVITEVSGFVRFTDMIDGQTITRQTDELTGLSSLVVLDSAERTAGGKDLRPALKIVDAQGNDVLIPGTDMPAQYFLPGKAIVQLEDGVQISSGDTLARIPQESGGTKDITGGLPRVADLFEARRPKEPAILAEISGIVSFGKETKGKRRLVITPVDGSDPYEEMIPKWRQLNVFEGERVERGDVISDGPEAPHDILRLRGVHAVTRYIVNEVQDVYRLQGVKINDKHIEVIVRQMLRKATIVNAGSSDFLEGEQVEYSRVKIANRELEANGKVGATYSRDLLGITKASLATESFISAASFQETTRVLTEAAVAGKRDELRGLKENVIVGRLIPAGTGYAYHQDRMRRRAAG
Chain of E. coli RNA polymerase core complex (P0A800 whole entry): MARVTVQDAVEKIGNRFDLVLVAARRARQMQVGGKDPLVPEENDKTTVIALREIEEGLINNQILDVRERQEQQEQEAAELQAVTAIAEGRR

## E. coli RNA polymerase core complex (from UniProt P0A7Z4 1-329; P0A8V2 2-1341; P0A8T7 8-1376; P0A800 1-91) (complex; C-terminal 6xHis tag on beta' omitted; Zn-bound beta' Zn-finger; core without sigma; K12 sequences assumed)
  Kd: 21 nM
